The source of these data is patent US20260209352A1 (Adimab, published 2026).

By Kd is commonly meant the concentration at which binding is half-saturated. A low value points to a tighter complex.

Assay [1] addresses Cyno CD3εδ-Fc (cynomolgus) (UniProt Q95LI8). The experiment in a line: KD of scFv-Fc or IgG on cyno CD3εδ-Fc; instrument not given.
Assay [2] concerns the target T1, Cynomolgus CD3 on Cyno CD3+ Jurkat cells (cynomolgus, UniProt Q95LI5 22-198).
T1 construct: whole, on cells; CD3 on cells; also called cCD3
The experiment in a line: cell binding cCD3, fold over background.

Assay [3] deals with Human CD3εδ-Fc (human) (UniProt P04234). The experiment in a line: KD of scFv-Fc or IgG on human CD3εδ-Fc; instrument not given.
Sequence of Human CD3εδ-Fc (human) (chain, as listed by the source mutant, chain 1 of 2): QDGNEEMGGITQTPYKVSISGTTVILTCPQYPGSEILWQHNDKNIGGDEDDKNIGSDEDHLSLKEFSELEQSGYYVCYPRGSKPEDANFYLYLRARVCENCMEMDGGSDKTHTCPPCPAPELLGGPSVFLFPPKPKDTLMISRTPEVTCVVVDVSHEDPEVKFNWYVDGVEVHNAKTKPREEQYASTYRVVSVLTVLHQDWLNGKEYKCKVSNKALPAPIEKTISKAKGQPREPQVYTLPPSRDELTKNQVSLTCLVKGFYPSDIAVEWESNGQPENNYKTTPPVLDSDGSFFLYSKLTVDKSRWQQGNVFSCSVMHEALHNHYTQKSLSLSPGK
Sequence of Human CD3εδ-Fc (human) (P04234 22-105, stated change not applied, chain 2 of 2): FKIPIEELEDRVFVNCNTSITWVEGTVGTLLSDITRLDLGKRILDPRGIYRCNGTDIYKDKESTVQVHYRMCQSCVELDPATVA
The target of assay [4] is T2, Human CD3 on Human CD3+ Jurkat cells (human, UniProt P07766 23-207).
T2 construct: whole, on cells; CD3 complex on cells; also called hCD3
T2 sequence (P07766 23-207): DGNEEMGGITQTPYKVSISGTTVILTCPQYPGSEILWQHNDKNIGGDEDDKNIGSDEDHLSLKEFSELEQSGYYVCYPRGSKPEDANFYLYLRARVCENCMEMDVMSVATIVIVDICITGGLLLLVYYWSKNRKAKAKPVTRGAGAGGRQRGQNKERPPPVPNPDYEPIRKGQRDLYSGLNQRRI
The experiment in a line: cell binding hCD3, fold over background.

Sequence of Cyno CD3εδ-Fc (cynomolgus) (chain, as listed by the source mutant, chain 1 of 2): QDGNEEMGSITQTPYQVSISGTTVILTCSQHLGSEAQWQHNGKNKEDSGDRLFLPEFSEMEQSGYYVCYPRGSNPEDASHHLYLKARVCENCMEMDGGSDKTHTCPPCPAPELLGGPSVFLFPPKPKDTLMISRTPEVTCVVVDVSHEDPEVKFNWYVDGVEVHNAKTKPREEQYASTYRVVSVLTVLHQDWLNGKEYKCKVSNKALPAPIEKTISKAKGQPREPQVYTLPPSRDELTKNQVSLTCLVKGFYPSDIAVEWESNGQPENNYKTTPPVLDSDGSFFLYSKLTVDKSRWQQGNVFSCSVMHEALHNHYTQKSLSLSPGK
Sequence of Cyno CD3εδ-Fc (cynomolgus) (Q95LI8 22-105, stated change not applied, chain 2 of 2): as the sequence (P04234 22-105, stated change not applied, chain 2 of 2) above, with I5V, N15K, I20V, S32T, D33N, I34N, T64A, S74N, V83L counted along it
T1 sequence (Q95LI5 22-198): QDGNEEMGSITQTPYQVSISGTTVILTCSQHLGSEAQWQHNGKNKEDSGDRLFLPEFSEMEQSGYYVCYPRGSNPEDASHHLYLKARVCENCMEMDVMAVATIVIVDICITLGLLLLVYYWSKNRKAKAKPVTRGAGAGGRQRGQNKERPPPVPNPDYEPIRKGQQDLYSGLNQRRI

B1: ADI-45970 (antibody, V domains shown)
VH: QVQLVQSGAEVKKPGASVKVSCKASGFNVKDYYMHWVRQAPGQRLEWIGWIDLENANTVYDAKFQGRVTITRDTSASTAYMELSSLRSEDTAVYYCARDAYGRYFYDVWGQGTLVTVSS
VL: DIVMTQSPDSLAVSLGERATINCKSSQSLLNARTGKNYLAWYQQKPGQPPKLLIYWASTRESGVPDRFSGSGSGTDFTLTISSLQAEDVAVYYCKQSYFRRTFGGGTKVEIK
notes: also called Ab6
For the molecule B1, the Kd turned out to be 1.6 nM in assay [1] and 0.15 nM in assay [3]. In addition, in assay [2], the “Cell Binding cCD3 (FOB)” value was 68 FOB. For the same molecule, in assay [4], the “Cell Binding hCD3 (FOB)” value was determined as 53 FOB.

B2: ADI-45979 (antibody, V domains shown)
VH: QVQLVQSGAEVKKPGASVKVSCKASGFNIKDYYMHWVRQAPGQRLEWIGWIDLENANTVYDAKFQGRVTITRDTSASTAYMELSSLRSEDTAVYYCARDAYGRYFYDVWGQGTLVTVSS
VL: DIVMTQSPDSLAVSLGERATINCKSSQELLNARTGKNYLAWYQQKPGQPPKLLIYWASTRESGVPDRFSGSGSGTDFTLTISSLQAEDVAVYYCKQSYFRRTFGGGTKVEIK
notes: also called Ab16
Consider B2, for which the Kd in assay [1] was 1.7 nM; in assay [3], 0.19 nM. Moreover, the “Cell Binding cCD3 (FOB)” value in assay [2] worked out at 72 FOB. The “Cell Binding hCD3 (FOB)” value in assay [4] was 54 FOB.

B3: ADI-45977 (antibody, V domains shown)
VH: QVQLVQSGAEVKKPGASVKVSCKASGFNIKDYYMHWVRQAPGQRLEWIGWIDLENANTVYDAKLQGRVTITRDTSASTAYMELSSLGSEDTAVYYCARDAYGRYFYDVWGQGTLVTVSS
VL: DIVMTQSPDSLAVSLGERATINCKSSQSLLNARTGKNYLAWYQQKPGQPPKLLIYWASTRESGVPDRFSGSGSGTDFTLTISSLQAEDVAVYYCTQSYFRRTFGGGTKVEIK
notes: also called Ab14
As for B3, the figures for the Kd in assay [1] and in assay [3] were 1.1 nM and 0.091 nM, respectively. In assay [2], the “Cell Binding cCD3 (FOB)” value came to 159 FOB. Besides, the “Cell Binding hCD3 (FOB)” value in assay [4] amounted to 59 FOB.

B4: ADI-45980 (antibody, V domains shown)
VH: QVQLVQSGAEVKKPGASVKVSCKASGFNIKDYYMHWVRQAPGQRLEWIGWIDLENANTVYDAKFQGRVTITRDTSASTAYMELNSLRSEDTAVYYCARDAYGRYFYDVWGQGTLVTVSS
VL: DIVMTQSPDSLAVSLGERATINCKSSQSLLNARTGKNYLAWYQQKPGQPPKLLIYWAFTRESGVPDRFSGSGSGTDFTLTISSLQAEDVAVYYCTQSYFRRTFGGGTKVEIK
notes: also called Ab17
Consider B4, for which the Kd in assay [1] worked out at 1.2 nM; in assay [3], 0.08 nM. Besides, in assay [2], the “Cell Binding cCD3 (FOB)” value was 85 FOB. For the same molecule, the “Cell Binding hCD3 (FOB)” value in assay [4] turned out to be 8 FOB.

B5: ADI-45985 (antibody, V domains shown)
VH: QVQLVQSGAEVKKPGASVKVSCKASGFNIKDYYMHWVRQAPGQRLEWIGWIDLENANTVYDAKFQGRVTITRDTSASTAYMELSSLRSEDTAVYYCARDAYGRYFYDVWGQGTLVTVSS
VL: DIVMTQSPDSLAVSLGERATINCKTSQSLLNARTNKNYLAWYQQKPGQPPKLLIYWASTRESGVPDRFSGSGSGTDFTLTISSLQAEDVAVYYCVQSYFRRTFGGGTKVEIK
notes: also called Ab22
In the case of B5, the Kd came to 1.2 nM in assay [1] and 0.08 nM in assay [3]. In addition, in assay [2], the “Cell Binding cCD3 (FOB)” value was 23 FOB. The “Cell Binding hCD3 (FOB)” value in assay [4] is 21 FOB.

B6: ADI-45974 (antibody, V domains shown)
VH: QVQLVQSGAEVKKPGASVKVSCKASGFNIKDYYMHWVRQAPGQRLEWIGWIDLENANTVYDAKFQGRVTITRDTSASTAYMELSNLRSEDTAVYYCARDAYGRYFYDVWGQGTLVTVSS
VL: DIVMTQSPDSLAVSLGERATINCKSSQSLLNARTGKNYLAWYQQKPGQPPKLLIYWASTRESGVPDRFSGSGSGTDFTLTISSLQAEDVAVYYCKQSYFRRTFGGGTKVEIK
notes: also called Ab10
As for B6, the values for the Kd in assay [1] and in assay [3] were 2.1 nM and 0.19 nM, respectively. Also, the “Cell Binding cCD3 (FOB)” value in assay [2] is 67 FOB. In assay [4], the “Cell Binding hCD3 (FOB)” value is 47 FOB.

B7: ADI-45984 (antibody, V domains shown)
VH: QVQLVQSGAEVKKPGASVKVSCKASGFNIKDYYMHWVRQAPGQRLEWIGWIDLENANTVYDAKFQGRVTITRDTSASTAYMELSSLRSEDTAVYYCARDAYGRYFYDVWGQGTLVTVSS
VL: DIVMTQSPDSLAVSLGERATINCKSSQSLLNARTRKNYLAWYQQKPGQPPKLLIYWASTRESGVPDRFSGSGSGTDFTLTISSLQAEDVAVYYCVQSYFRRTFGGGTKVEIK
notes: also called Ab21
On to B7, for which the Kd in assay [1] was determined as 1.3 nM; in assay [3], 0.095 nM. In addition, the “Cell Binding cCD3 (FOB)” value in assay [2] came out at 92 FOB. For the same molecule, the “Cell Binding hCD3 (FOB)” value in assay [4] is 88 FOB.

B8: ADI-45973 (antibody, V domains shown)
VH: QVQLVQSEAEVKKPGASVKVSCKASGFNIKDYYMHWVRQAPGQRLEWIGWIDLENANTVYDAKFQGRVTITRDTSASTAYMELSSLRSEDTAVYYCARDAYGRYFYDVWGQGTLVTVSS
VL: DIVMTQSPDSLAVSLGERATINCKSSQSLLNARTGKNYLAWYQQKPGQPPKLLIYWASTRESGVPDRFSGSGSGTDFTLTISSLQAEDVAVYYCKQSYFRRTFGGGTKVEIK
notes: also called Ab9
Regarding B8, the Kd in assay [1] amounted to 1.8 nM; in assay [3] it was 0.16 nM. The “Cell Binding cCD3 (FOB)” value in assay [2] came out at 91 FOB. In assay [4], the “Cell Binding hCD3 (FOB)” value amounted to 55 FOB.

B9: ADI-45978 (antibody, V domains shown)
VH: QVQLVQSGAEVKKPGASVKVSCKASGFNIKDYYMHWVRQAPGQRLEWLGWIDLENANTVYDAKFQGRVTITRDTSASTAYMELSSLRSEDTAVYYCARDAYGRYFYDVWGQGTLVTVSS
VL: DIVMTQSPDSLAVSLGERATINCKSSQSLLNARTGKNYLAWYQQKPGQPPKLLIYWASARESGVPDRFSGSGSGTDFTLTISSLQAEDVAVYYCTQSYFRRTFGGGTKVEIK
notes: also called Ab15
For the molecule B9, the Kd in assay [1] was determined as 1.2 nM; in assay [3], 0.074 nM. Moreover, in assay [2], the “Cell Binding cCD3 (FOB)” value stood at 37 FOB. The “Cell Binding hCD3 (FOB)” value in assay [4] worked out at 25 FOB.

B10: ADI-45972 (antibody, V domains shown)
VH: QVQLVQSGAEVKRPGASVKVSCKASGFNIKDYYMHWVRQAPGQRLEWIGWIDLENANTVYDAKFQGRVTITRDTSASTAYMELSSLRSEDTAVYYCARDAYGRYFYDVWGQGTLVTVSS
VL: DIVMTQSPDSLAVSLGERATINCKSSQSLLNARTGKNYLAWYQQKPGQPPKLLIYWASTRESGVPDRFSGSGSGTDFTLTISSLQAEDVAVYYCVQSYFRRTFGGGTKVEIK
notes: also called Ab8
In the case of B10, the Kd is 1.4 nM in assay [1] and 0.081 nM in assay [3]. For the same molecule, in assay [2], the “Cell Binding cCD3 (FOB)” value was 45 FOB. The “Cell Binding hCD3 (FOB)” value in assay [4] was 32 FOB.

B11: ADI-45983 (antibody, V domains shown)
VH: QVQLVQSGAEVKKPGASVKVSCKASGFNIKDYYMHWVRQAPGQRLEWIGWIDLENANTVYDAKFQGRVTITRDTSAGTAYMELSSLRSEDTAVYYCARDAYGRYFYDVWGQGTLVTVSS
VL: DIVMTQSPDSLAVSLGERATINCKSSQSLLNARTMKNYLAWYQQKPGQPPKLLIYAASTRESGVPDRFSGSGSGTDFTLTISSLQAEDVAVYYCAQSYFRRTFGGGTKVEIK
notes: also called Ab20
On to B11, for which the figures for the Kd in assay [1] and in assay [3] were 2 nM and 0.23 nM, respectively. In addition, the “Cell Binding cCD3 (FOB)” value in assay [2] was determined as 101 FOB. The “Cell Binding hCD3 (FOB)” value in assay [4] was 24 FOB.

B12: ADI-45981 (antibody, V domains shown)
VH: QVQLVQSGAEVKKPGASVKVSCKASGFNIKDYYMHWVRQAPGQRLEWIGWIDLENANTVYDAKFQGRVTITRDTSASTAYMELSSLRSEDTAVYYCARDAYGRYFYDVWGQGTLVTVSS
VL: DIVMTQSPDSLAVSLGERATINCKSSQSLLNARTGKNYLAWYQQKPGQPPKLLIYWASMRESGVPDRFSGSRSGTDFTLTISSLQAEDVAVYYCSQSYFRRTFGGGTKVEIK
notes: also called Ab18
Take B12: the results for the Kd in assay [1] and in assay [3] were 1.6 nM and 0.089 nM, respectively. The “Cell Binding cCD3 (FOB)” value in assay [2] was determined as 78 FOB. Besides, the “Cell Binding hCD3 (FOB)” value in assay [4] came out at 33 FOB.

B13: ADI-45971 (antibody, V domains shown)
VH: QVQLVQSGAEVKKPGATVKVSCKASGFNIKDYYIHWVRQAPGQRLEWIGWIDLENANTVYDAKFQGRVTITRDTSASTAYMELSSLRSEDTAVYYCARDAYGRYFYDVWGQGTLVTVSS
VL: DIVMTQSPDSLAVSLGERATINCKSSQSLLNARTRKNYLAWYQQKPGQPPKLLIYWASTRESGVPDRFSGSGSGTDFTLTISSLQAEDVAVYYCVQSYFRRTFGGGTKVEIK
notes: also called Ab7
In the case of B13, the Kd in assay [1] turned out to be 1.9 nM; in assay [3], 0.11 nM. The “Cell Binding cCD3 (FOB)” value in assay [2] is 20 FOB. In assay [4], the “Cell Binding hCD3 (FOB)” value was determined as 21 FOB.

B14: ADI-45982 (antibody, V domains shown)
VH: QVQLVQSGAEVKKPGASVKVSCKASGFNIKDYYMHWVRQAPGQRLEWIGWIDLENANTVYDAKFQGRVTITRDTSASTAYMELSSLRSEDTAVYYCARDAYGRYFYDVWGQGTLVTVSS
VL: DIVMTQSPDSLAVSLGERATINCKSSQSLLNARTGKNYLAWYQQKPGQPPKLLIYWASTRENGVPDRFSGSGSGTDFTLTISSLQAEDVAVYYCTQSYFRRTFGGGTKVEIK
notes: also called Ab19
For B14, the Kd in assay [1] is 1.4 nM; in assay [3], 0.12 nM. Besides, the “Cell Binding cCD3 (FOB)” value in assay [2] was determined as 31 FOB. Also, the “Cell Binding hCD3 (FOB)” value in assay [4] came to 24 FOB.

B15: ADI-45976 (antibody, V domains shown)
VH: QVQLVQSGAEVKKPGASVKVSCKASGFNIKDYYMHWVRQAPGQRLEWIGWIDLENANTVYDAKFQGRVTITRDTSASTAYMELSSLRSEDTAVYYCVRDAYGRYFYDVWGQGTLVTVSS
VL: DIVMTQSPDSLAVSLGERATINCKSSQSLLNARTGKNYLAWYQQKPGQPPKLLIYWASTRESGVPDRFSGSGSGTDFTLTISSLQAEDVAVYYCVQSYFRRTFGGGTKVEIK
notes: also called Ab12
On to B15, for which the Kd in assay [1] turned out to be 1.8 nM; in assay [3], 0.12 nM. Also, in assay [2], the “Cell Binding cCD3 (FOB)” value was found to be 109 FOB. Further, the “Cell Binding hCD3 (FOB)” value in assay [4] is 45 FOB.
